Assay results published in patent US20120172298A1, “GLP-1 AND FGF21 COMBINATIONS FOR TREATMENT OF DIABETES TYPE 2” (Novo Nordisk A/S, priority 2009, published 2012).

Test system: rat insulinoma beta-cells (INS-1)
Experiment: FFA induced apoptosis of INS-1 beta-cells (Caspase-3/7 assay)
Assay type: cell-based
Details: 48 hours, FGF21 compound = F1 50 nM, GLP-1 compound = G1 50 nM, mean +/- SEM
Method: This ex vivo example investigates the influence of FGF21 and GLP-1 compounds on FFA (free fatty acid) induced apoptosis of rat insulinoma beta-cells (INS-1).
Compound F1 (Prospec, cat. no. CYT-474) was used as the FGF21 compound, and compound G1 was used as the GLP-1 compound.
INS-1 cells were seeded in 96-well plates (50000 cells/well) and incubated overnight in cell medium (RPMI 1640 medium (Gibco, cat. no. 61870-010), supplemented with 10% FCS (Gibco, cat. no. 10085-140), 1% Pen/Strep (Gibco, cat. no. 15140-114) and 0.5 ml beta-mercaptoethanol (Gibco, cat. no. 31350-010 (50 mM)). The FGF21 compound (50 nM) and the GLP-1 compound (50 nM) were added to the cells 1 hour before the cells were to be exposed to FFA. The FFA's were prepared as follows: Stock solutions of palmitic acid (Sigma P5585) and oleic acid (Sigma 01383) of 1M in DMSO were mixed 1:2 and heated to 60 degree Celsius. The FFA mix was then diluted 10 times in 0.1M NaOH. This mixture was then further diluted in cell medium to yield a FFA concentration of 1 mM. The FFAs were then added to the cells to a final concentration of 0.35 mM. […]

B1: Met-FGF21_human (protein, listed as Homo sapiens)
chain: HPIPDSSPLLQFGGQVRQRYLYTDDAQQTEAHLEIREDGTVGGAADQSPESLLQLKALKPGVIQILGVKTSRFLCQRPDGALYGSLHFDPEACSFRELLLEDGYNVYQSEAHGLPLHLPGNKSPHRDPAPRGPARFLPLPGLPPALPEPPGILAPQPPDVGSSDPLSMVGPSQGRSPSYAS
modifications: N-terminal Met; mat_peptide (1)..(181); DISULFID (75)..(93)
FFA 0.00 mM
  Apoptosis (Caspase 3/7 assay, fluorescense): 1827 +/− 22
FFA 0.35 mM
  Apoptosis (Caspase 3/7 assay, fluorescense): 33278 +/− 1254
